Key:
[1] = biological target: human γD-crystallin C18S/C32S/C41S/C78S (human); assay: intact protein electrospray mass spectrometry; Bruker Impact II QTOF electrospray mass spectrometer with HPLC; isotopically averaged mass of monomer and dimer samples
[2] = biological target: human γD-crystallin C18T/C32A/C41A/C78A (human); assay: as above

Substance | stoichiometry N [1] | stoichiometry N [2]
human γD-crystallin C18S/C32S/C41S/C78S (natural protein) | 2 | –
human γD-crystallin C18T/C32A/C41A/C78A (natural protein) | – | 2
